Experimental data reported in patent US20140287419A1, “Compositions Having Dicamba Decarboxylase Activity and Methods of Use” (priority 2013, published 2014).
Numbering of substitutions follows the chain as printed. Names may count otherwise. “Also recorded” adds a separate entry of the source.

B1: SEQ ID NO:115: Design variant of SEQ ID NO: 1 (protein)
chain: MAQGKVALEEHFAIPDTLTTYTTSGDYEKELKHRLLDIQDTRLKLMDAHGIETMILSLNAPGVQAIPDRRKAIEIARRANDVLAEECAKRPDRFLAFAALPLQDPDAATEELQRCVNDLGFVGALVNGFSQEGDGQTPLYYDLPQYRPFWGEVEKLDVPFYLHPRNPLPQDSRIYDGHPWLLGPTWAFAQETAVHALRLMASGLFDEHPRLNIILGHMGEGLPYMMWRIDHRNAWVKTPPRYPAKRRFMDYFNENFHITTSGNFRTQTLIDAILEIGADRILFSTDWPFENIDHASDWFNATSIAEADRVKIGRTNARRLFKLDGA
modifications: Dicamba decarboxylase variant clone DC.4.161
B2: SEQ ID NO:32: o-pyrocatechuate decarboxylase, Streptomyces violaceusniger Tu 4113 (protein)
chain: MARIIAIEEHFLDLDIARASRPEAERLSPAFAAAYGAGQGYNYSPAPEVLLDLEEGRVADMDAHGISMQVLSSLSTQQLPADVAVELVRKVNDRAAAAVAARPDRFAAFAALPTTVPEAAADELDRAVGELGFVGSMINGRTGDAFLDAPRFDAVLRRSAELRVPVYLHPGVPPVETSRSNYEGGLDPIVTARLQTSAWGWHVETGIHFLHLVLAGVFDRYPDLQVILGHWGEMVPFFLERIEEALPQQITHLDRPVGAYFRENAHITPSGMFSQAQLQFCVETVGIERIMFSVDYPFLGNDGAEAFLRQANLPPLATEKIAHLNAERLLALPS
modifications: Streptomyces violaceusniger
B3: SEQ ID NO:116: Design variant of SEQ ID NO: 41; new 35 amino acid N-terminal loop (protein)
chain: MAQGKVALEEHFAIPETLQDAAGFVPGDYWKELQHRLLDIQDRRVRLMDEHGIETMILSLNAPAVQAIADSTRANETARRANDFLAEQVAKQPTRFRGFAALPMQDPELAARELERCVKELGFVGALVNGFSQDNRSAVPLYYDMAQYWPFWETVQALDVPFYLHPRNPLPSDARIYDGHAWLLGPTWAFGQETAVHALRLMGSGLFDKYPALKIILGHMGEGLPYSMWRIDHRNAWIKTTPKYPAKRKIVDYFNENFYLTTSGNFRTQTLIDAILEIGADRILFSTDWPFENIDHAADWFENTSISEADRKKIGWGNAQNLFKLNR
modifications: Dicamba decarboxylase variant clone DC.30.007
notes: new 35 amino acid N-terminal loop
B4: SEQ ID NO:108: hypothetical protein SAV2580, Staphylococcus aureus subsp. aureus Mu50 (protein, listed as Staphylococcus aureus)
chain: MAKSITFEEHYVIEDIQKETMNAISADPKGVPMKVMLEGLEKKTGFTNADELSHHDERIQFMNNQDVQIQVLSYGNGSPSNLVGQKAIELCQKANDQLANYIAQYPNRFVGFATLPINEPEAAAREFERCINDLGFKGALIMGRAQDGFLDQDKYDIIFKTAENLDVPIYLHPAPVNSDIYQSYYKGNYPEVTAATFACFGYGWHIDVGIHAIHLVLSGIFDRYPKLNMIIGHWGEFIPFFLERMDEALFAEHLNHSVSYYFKNSFYITPSGMLTKPQFDLVKKEVGIDRILYAADYPYIEPEKLGVFLDELGLTDEEKEKISYTNGAKLLGLSSNN
B5: SEQ ID NO:114: Design variant of SEQ ID NO: 1 (protein)
chain: MAQGKVALEEHFAIPETLQDSAGAVPGDYWKELQHRLLDIQDTRLKLMDAHGIETMILSLNAPAVQAIPDRRKAIEIARRANDVLAEECAKRPDRFLAFAALPLQDPDAATEELQRCVNDLGFVGALVNGFSQEGDGQTPLYYDLPQYRPFWGEVEKLDVPFYLHPRNPLPQDSRIYDGHPWLLGPTWAFAQETAVHALRLMASGLFDEHPRLNIILGHMGEGLPYMMWRIDHRVAWVKLPPRYPAKRRFMDYFNENFHITTSGNFRTQTLIDAILEIGADRILFSTDWPFENIDHASDWFNATSIAEADRVKIGRTNARRLFKLDGA
modifications: Dicamba decarboxylase variant clone DC.4.116
B6: SEQ ID NO:110: Design variant of SEQ ID NO: 1 (protein)
chain: B5 chain with A22M, A24F, Q34M, V235M
modifications: Dicamba decarboxylase variant clone DC.4.111
B7: SEQ ID NO:112: Design variant of SEQ ID NO: 1 (protein)
chain: B5 chain with A24F, Q34V
modifications: Dicamba decarboxylase variant clone DC.4.113
B8: SEQ ID NO:111: Design variant of SEQ ID NO: 1 (protein)
chain: B5 chain with A22M, A24F, Q34M, V235M, V238I
modifications: Dicamba decarboxylase variant clone DC.4.112
B9: SEQ ID NO:109: Design variant of SEQ ID NO: 1; designed mutation N235V (protein)
chain: B5 chain with A24F
modifications: Dicamba decarboxylase variant clone DC.4.032
notes: designed mutation N235V

Experiment: 14C assay with purified protein (14CO2 captured on Ca(OH)2 filter paper)
Assay type: biochemical
Settings: [14C]-carboxyl-labeled dicamba

Row | Molecule | CO2 product
1 | B1 | detected
2 | B2 | detected
3 | B3 | detected
4 | B4 | detected
5 | B5 | detected
6 | B6 | detected
7 | B7 | detected
8 | B8 | detected
9 | B9 | detected

Experiment: Detection of 4-chloro-3-methoxy phenol product by LC-MS/MS
Assay type: biochemical
Settings: purified protein
Protocol: The decarboxylated and chloro hydrolyzed product, 4-chloro-3-methoxy phenol (FIG. 1D), is measured using a LC-MS/MS analytical procedure. […] 10 ul is removed from the reaction mixture and mixed with 90 ul pre-chilled methanol followed by centrifugation at 14,000 rpm for 15 min at 4° C. 10 ul of the supernatant is then transferred into 170 ul ddH2O to achieve 5% methanol solution for injection. 50 ul of the prepared sample is injected into a 4000 Q Trap LC-MS/MS system for sample analysis. LC-MS/MS parameters are: Mobile Phase A, 2 mM ammonium acetate in water; Mobile Phase B, 2 mM ammonium acetate in methanol; Column, Aquasil, 100×2.1 mm, 3 μm, C18 column; Flow Rate, 0.6 ml/min. The MS/MS fragment 157/142 which is common to 4-chloro-3-methoxy phenol, 2-chloro-5-methoxy phenol, and 3-chloro-5-methoxy phenol is monitored at a retention time of 2.88 min.

Row | Molecule | 4-chloro-3-methoxy phenol product
10 | B1 | detected
11 | B2 | detected
12 | B3 | detected
13 | B4 | detected
14 | B5 | detected
15 | B6 | detected
16 | B7 | detected
17 | B8 | detected
18 | B9 | detected

Experiment: Detection of 2,5-DCP product by GC/MS
Assay type: biochemical
Settings: purified protein
Protocol: The decarboxylated and demethylated product of dicamba, 2,5-dichloro phenol or 2,5-DCP (FIG. 1E) is measured using a GC/MS analytical procedure with either liquid injection after liquid/liquid extraction using toluene as the extraction solvent or gas injection using head space method. The head space sample analysis is carried out on an Agilent GC/MS system with a 6890A GC, a 5973N MSD and a CTC CombiPAL auto-sampler or with a 7890A GC, a 5975C MSD and an Agilent GC Sampler 80 auto-sampler with Phenomenex ZB-MultiResidue-1 column (30 m length, 0.25 mm diameter, 0.25 um film) or equivalent. GC/MS parameters are: GC inlet temperature, 200° C.; Carry gas, helium in constant flow mode (1.2 mL/min); Oven temperature program, 70° C. for 1 min and then ramp to 275° C. at 40° C./min. […] The reaction vial is transferred to a agitator for incubation at 90° C. for 4 min at 500 rpm. With a syringe preheated at 110° C., 1000 uL of head space is injected with sample fill speed at 100 uL/sec. A 2-mm diameter liner is used in sample inlet. The MS data acquisition is done in SIM (selected ion monitoring) mode. The positive ion at M/Z 162 for the molecular ion of 2,-5-DCP is monitored at retention time of 4.06 min. Solvent delay for MS acquisition is set at 3 min. GC/MS parameters for liquid sample analysis are the same as those for head space analysis, except that the volume of liquid injection is 1 uL.

Row | Molecule | 2,5-DCP product
19 | B1 | detected
20 | B2 | detected
21 | B3 | detected
22 | B4 | detected
23 | B5 | detected
24 | B6 | detected
25 | B7 | detected
26 | B8 | detected
27 | B9 | detected

Experiment: Dicamba decarboxylation activity of computationally designed protein variants
Settings: native protein or designed variant versus parent

Row | Molecule | Dicamba Decarboxylase Activity
28 | B1 | displays an increase in dicamba decarboxylase activity
29 | B3 | displays an increase in dicamba decarboxylase activity
30 | B5 | displays an increase in dicamba decarboxylase activity
31 | B6 | displays an increase in dicamba decarboxylase activity
32 | B7 | displays an increase in dicamba decarboxylase activity
33 | B8 | displays an increase in dicamba decarboxylase activity
34 | B9 | more active than their parent sequence; also recorded: displays an increase in dicamba decarboxylase activity

Experiment: 14C assay with IPTG-induced recombinant E. coli cells (14CO2 capture from [14C]-carboxyl-labeled dicamba)
Settings: E. coli cell assay, 108 sequences tested

Row | Molecule | decarboxylation activity of dicamba
35 | B2 | showed decarboxylation activity of dicamba
36 | B4 | showed decarboxylation activity of dicamba
